B1: 03-006 (antibody, V domains shown)
VH: EVQLVESGGGLVQPGGSLRLSCAASGFTFSGYPMHWVRQAPGKGLEWVAVISYDGSNKYYADSVKGRFTISRDNSKNTLYLQMNSLRAEDTAVYYCAKDGSPRTPSFDYWGQGTLVTVSS
VL: DIQMTQSPHSLSASVGDRVTITCRASQGISNYLAWYQQKPGKVPKLLIYAASTLQSGVPSRFSGSGSGTDFTLTISSLQPEDVGVYYCQQRFRTPVTFGQGTKLEIKR
B2: 03-013 (antibody, V domains shown)
VH: EVQLVESGGGLVQPGGSLRLSCAASGFTFSDHYMDWVRQAPGKGLEWVGRTRNKANSYTTEYAASVKGRFTISRDDSKNSLYLQMNSLKTEDTAVYYCAKGLTPLYFDYWGQGTLVTVSS
VL: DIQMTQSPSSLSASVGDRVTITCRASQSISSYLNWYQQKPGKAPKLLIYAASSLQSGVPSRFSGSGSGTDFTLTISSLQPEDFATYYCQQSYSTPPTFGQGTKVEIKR
B3: 03-014 (antibody, V domains shown)
VH: B2 VH with K100R, L102I, T103S, L105F
VL: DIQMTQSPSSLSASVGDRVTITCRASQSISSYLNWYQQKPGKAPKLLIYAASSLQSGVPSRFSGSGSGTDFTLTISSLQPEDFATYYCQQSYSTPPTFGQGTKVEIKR
B4: 03-015 (antibody, V domains shown)
VH: EVQLVESGGGVVRPGGSLRLSCAASGFTFDDYGMSWVRQAPGKGLEWVSGINWNGGSTGYADSVKGRFTISRDNAKNSLYLQMNSLRAEDTAVYYCARGLSLRPWGQGTLVTVSS
VL: SSELTQDPAESVALGQTVRITCQGDSLRSYYASWYQQKPGQAPVLVIYGKNNRPSGIPDRFSGSSSGNTASLTITGAQAEDEADYYCNSRDSSGNHVVFGGGTKLTVLG
B5: 03-009 (antibody, V domains shown)
VH: EVQLVESGGGVVQPGRSLRLSCAASGFTFSDYPMNWVRQAPGKGLEWVSSISGSGGSTYYADSVKGRFTISRDNSKNTLYLQMNSLRAEDTAVYYCAKGLFMVTTYAFDYWGQGTLVTVSS
VL: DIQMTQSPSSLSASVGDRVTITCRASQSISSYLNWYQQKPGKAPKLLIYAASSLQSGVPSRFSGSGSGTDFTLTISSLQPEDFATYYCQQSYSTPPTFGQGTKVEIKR
B6: 03-002 (antibody, V domains shown)
VH: EVQLVESGGGLVKPGGSLRLSCAASGFTFSGYSMSWVRQAPGKGLEWVGRTRNKANSYTTEYAASVKGRFTISRDDSKNSLYLQMNSLKTEDTAVYYCARYYSRSLKAFDYWGQGTLVTVSS
VL: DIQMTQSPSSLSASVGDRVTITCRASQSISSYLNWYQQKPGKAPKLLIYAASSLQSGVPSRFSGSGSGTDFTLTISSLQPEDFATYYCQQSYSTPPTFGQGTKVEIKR
B7: 03-001 (antibody, V domains shown)
VH: EVQLVESGGGLVKPGGSLRLSCAASGFTFSGYSMNWVRQAPGKGLEWVSSISGGSTYYADSRKGRFTISRDNSKNTLYLQMNNLRAEDTAVYYCARHRFRHVFDYWGQGTLVTVSS
VL: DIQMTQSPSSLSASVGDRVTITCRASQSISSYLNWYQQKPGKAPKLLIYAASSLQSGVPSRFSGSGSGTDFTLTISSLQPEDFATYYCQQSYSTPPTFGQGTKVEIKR

Substitutions are numbered along the chain they refer to.

For one experiment, the target named is S565 fragment (amino acids 1-565 of the S protein of SARS-CoV), myc-tagged (SARS-CoV strain Frankfurt 1, UniProt P59594 14-565). In words: IgG ELISA on captured S565. Background: ELISA stands for enzyme-linked immunosorbent assay.
For B1, the binding result is “binds”.

As to B2, the binding result is reported as “binds”.

As for B3, the binding result is on record as “binds”.

In the case of B4, the binding result was “no binding”.

A further experiment has as its target full length S protein of SARS-CoV expressed on HEK293T cells (SARS-CoV strain Frankfurt 1, UniProt P59594 14-1255). Briefly: flow cytometry, IgG 10 µg/ml. For orientation: In flow cytometry, cells or beads pass a laser one at a time.
As to B1, the binding result is given as “binds”.

As to B2, the binding result is on record as “binds”.

Regarding B4, the binding result is reported as “binds”.

Another experiment addresses S318-510 fragment (amino acids 318-510 of the S protein of SARS-CoV strain Frankfurt 1) (SARS-CoV strain Frankfurt 1, UniProt P59594 318-510). Briefly: IgG ELISA on captured S318-510.
B1: the binding result is on record as “binds”.

For B5, the binding result is “no binding”.

For the molecule B6, the binding result is “no binding”.

Take B2: the binding result is given as “binds”.

For the molecule B3, the binding result is recorded as “binds”.

As to B7, the binding result is given as “no binding”.

With B4, the binding result was “no binding”.

In the next experiment the target is spike protein of SARS-CoV as present in the SARS-CoV preparation (SARS-CoV strain Frankfurt 1, UniProt P59594 14-1255). In words: sandwich ELISA, detection with anti-spike rabbit sera IMG-542 and IMG-557.
On to B2, for which the binding result is listed as “binds”.
